Assay: Expression and solubility of L1 protein in insect cells (cell lysate vs supernatant, SDS-PAGE)
Assay type: physicochemical
Conditions: supernatant after centrifugation of lysate
Experimental: FIG. 4: Expression of C-terminal truncated HPV 16L1 (1-474). M: Marker; L: cell lysates; E-S: supernatant collected after centrifugation of the lysates.
High Five cells were infected with baculovirus containing the HPV6 L1: 33C recombinant gene obtained in Example 2 at a ratio of 1:200 (V/V), and the cell precipitate was collected by centrifugation at 1000 g±100 g at room temperature. The cells were broken up by sonication at low temperature for 3 min, centrifuged at >10,000 g for 10 min and the supernatant was collected for SDS-PAGE. Lane 1: Marker (The marker is a mixture of 7 purified proteins with molecular weights ranging from 14.4 kDa to 116 kDa, produced by Thermo Scientific); Lane 2: cell lysate; Lane 3: supernatant of the lysate collected by centrifugation.
The inventors attempted to truncate the C-terminus of HPV16 L1 by 31 amino acids and named it HPV16 L1 (1-474) (SEQ ID NO: 27).

HPV16 L1 (1-474): Comparative example: HPV16 L1 protein with the C-terminus truncated by 31 amino acids
solubility of the expressed L1 protein: very poor solubility
solubility of the expressed L1 protein (listed as HPV 16 L1 (1-474)): poor solubility
